{"source": "patent US20150376264A1", "about": "(CALIFORNIA INSTITUTE FOR BIOMEDICAL RESEARCH, published 2015)", "binders": {"B1": {"name": "BLV1H12 hLeptin fusion protein (antibody, human IgG1)", "heavy": "not shown", "light": "QAVLNQPSSVSGSLGQRVSITCSGSSSNVGNGYVSWYQLIPGSAPRTLIYGDTSRASGVPDRFSGSRSGNTATLTISSLQAEDEADYFCASAEDSSSNAVFGSGTTLTVLGQPKSPPSVTLFPPSTEELNGNKATLVCLISDFYPGSVTVVWKADGSTITRNVETTRASKQSNSKYAASSYLSLTSSDWKSKGSYSCEVTHEGSTVTKTVKPSECS"}}, "target": "Leptin receptor", "test": "cell-based or functional assay"}
{"binder": "B1", "values": [{"measurement": "EC50 (Baf3-LepR cell proliferation, AlamarBlue)", "result": 0.0575, "unit": "nM"}]}
